Key:
[1] = Capillary isoelectric focussing (pI); type: physicochemical; conditions: HEK293F expression product
Protocol: Protocol 5: Capillary Isoelectric Focussing
• PA 800 plus (AB SCIEX) • Anolyte Solution: 200 mM Phosphoric Acid (Sigma-Aldrich #345 245). • 4.3M Urea (Sigma-Aldrich #U0631) in water. • Catholyte Solution: 300 mM Sodium Hydroxide. • 3M Urea (Sigma-Aldrich #U0631) in cIEF Gel (Beckman Coulter #477497). • Chemical Mobiliser: 350 mM Acetic Acid (Sigma-Aldrich #537 020). • Pharmalyte 3-10 (GE Healthcare 17-0456-01). • Cathodic Stabiliser: 500 mM Arginine (Sigma-Aldrich #A5006). • cIEF Peptide markers PI 4-10 (Beckman Coulter # A58481). • Anodic Stabiliser: 200 mM Iminodiacetic Acid (Sigma-Aldrich #220 000). • Neutral Capillary, 50 μm i.d.×45 cm, (Beckman Coulter #477 441)
• Turn on the PA800+ machine and UV lamp, allowing it to warm up 30 mins before use. • Clean the system electrodes and interface block with a damp Kimwipe. • Prepare buffer trays as shown, with 1.5 mL reagent per vial, 1 mL of water in the waste and place in the system. • 1. DDI water • 2. Anolyte • 3. Urea Solution • 4. 3M urea/cIEF Gel • 5. Chemical Mobilizer • 6. Waste • 7. Catholyte • 8. Chemical Mobilizer • 9. BI (Inlet Buffer Tray) • 10. BO (Outlet Buffer Tray) • NOTE. Each set of buffer vials is good for 6 consecutive runs or for 24 hours inside the instrument. • Insert the capillary cartridge into the system and close the front panel. • NOTE. […] When the capillary is not in use, submerge the capillary ends in vials filled with DDI water. • Prepare cIEF master mix using the table below. Dispense each reagent into a centrifuge tube, vortex 1 min, invert every 15-20 sec to ensure complete mixing and store at 2° C. to 8° C. for up to 1 day.
• Desalt and concentrate each antibody (to about 5 mg/ml) in 2M urea using Amicon Ultra 0.5 mL centrifugal filters (Sigma Z677108). • Mix 200 μL of master mix with 10 μL of protein, vortex the cIEF sample for 1 min, inverting the tube every 15-20 sec, then centrifuge at high speed to remove any air bubbles. Transfer 100 μL of sample into a micro vial. Place the micro vial into a universal plastic vial and cap it with a blue cap. Then place the sample vial in the inlet sample tray. • Run the “cIEF Conditioning—PA 800 plus.met” method to condition the column. • Rinse for 5 min at 50 psi with Chemical Mobilizer. See FIG. 2.10. • 2 Rinse for 2 min at 50 psi with DDI water. • 3 Rinse for 5 min at 50 psi with cIEF gel. • 4 Submerge both of the capillary ends in vials filled with DDI water. • Use the “cIEF Separation—PA 800 plus.met” method to create a sequence containing all protein samples and a blank. • Rinse for 3 min at 50 psi with Urea Solution. See FIG. 2.11. • Rinse for 2 min at 50 psi with DDI water. • Inject sample for 99.0 sec at 25 psi. • Water dip by submerging both capillary ends in DDI water. • Focusing step, 15 min at 25 kV under normal polarity (Time=0). • Chemical mobilization, 30 min at 30 kV under normal polarity (Time=15 min). • Stop data collection (Time=45 min). • Rinse for 2 min at 50 psi with DDI water (Time=45.10 min). • Submerged both of the capillary ends in DDI water (Time=47.20 min). • End the method (Time=47.30 min). • Put the “cIEF Shutdown—PA 800 plus.met” method at the end of the sequence to rinse the capillary and turn off the UV. • Rinse for 2 min at 50 psi with DDI water. See FIG. 2.12. • Rinse for 5 min at 50 psi with cIEF gel. • Turn off the UV lamp. • Submerge both of the capillary ends in vials filled with DDI water. • For short term storage (1 to 3 days), leave the capillary on the instrument. […]

Human Axl-Fc chimera = molecular target: T1, Human Axl-Fc chimera (Homo sapiens, UniProt P30530); assay: SPR measurement of antibody affinity, AXL-Fc chimera antigen; type: binding; conditions: for Kd / ka, AXL-Fc antigen / kd, AXL-Fc antigen: HBSEP+ running buffer, bivalent binding model
T1 construct: purchased R&D Systems 154-AL
Protocol: Protocol 4A: SPR Measurement of Antibody Affinity
• 1. Sensor Chip CM5 Biacore; Cat. # BR-1000-14 • 2. Amine Coupling Kit (EDC, NHS, ethanolamine-HCl) Biacore; Cat. # BR-1000-50 • 3. Immobilization buffer (10 mM Na acetate, pH 4.0) Biacore; Cat. # BR-1003-49 • 4. 50 mM NaOH Biacore; Cat. # BR-1003-58 • 5. Running buffer (PBS/Tween20 0.05% v/v) • 6. Biacore T200 GE Healthcare • 7. Regeneration solution: 10 mM HCl, 1 M NaCl
• Activate flow cell 2 with NHS-EDC 420s at 5 μl/min, then inject human AxI-Strep-His (Evitria) (10 μg/mL in 10 mM sodium acetate, pH 4.0) to achieve a coupling of […]. Block with ethanolamine for 420s. Repeat the process for flow cell 1 but with no antigen to create a reference flow cell. 12RU AXL fusion protein was coated. • For the Fc fusion, Human Axl-Fc chimera (R&D Systems #154-AL) (5 μg/mL in 10 mM sodium acetate, pH 4.5) was used with the above protocol. 16RU of AXL-Fc was coated. Protocol with AXL-Strep-His Antigen • Serial 10x dilutions of antibody, from 3000 nM, were made in PBS/Tween20. 2x regeneration cycles were used with 10 mM HCl, 1 M NaCl for 30s at 30 μl/min for both cycles. Start-up solution was PBS/Tween20 and set to 3 cycles. • Sample injection parameters were 120s at 30 μl/min, with 600s dissociation time. • Prime and normalise detector were run before sample application with experimental conditions 25 C and sample storage at 4 C. • Kinetic analysis used BIAevaluation software with bivalent ligand binding model. For chimeric 1H12 with AXL-Strep-His, “heterogeneous ligand” binding model was used due to poor fit with bivalent or monovalent algorithms. • Each antibody dilution was injected twice. Protocol with AXL-Fc Chimera Antigen • The above protocol was used except that the running buffer was HBSEP+, serial 10x dilutions of antibody were from 500 nM in HBSEP+ running buffer and were injected for 180 sec. • Analysis used BIAevaluation software with the bivalent binding model.

T1 sequence (P30530 with tags, fused parts or gaps isoform P30530-2 limits assumed): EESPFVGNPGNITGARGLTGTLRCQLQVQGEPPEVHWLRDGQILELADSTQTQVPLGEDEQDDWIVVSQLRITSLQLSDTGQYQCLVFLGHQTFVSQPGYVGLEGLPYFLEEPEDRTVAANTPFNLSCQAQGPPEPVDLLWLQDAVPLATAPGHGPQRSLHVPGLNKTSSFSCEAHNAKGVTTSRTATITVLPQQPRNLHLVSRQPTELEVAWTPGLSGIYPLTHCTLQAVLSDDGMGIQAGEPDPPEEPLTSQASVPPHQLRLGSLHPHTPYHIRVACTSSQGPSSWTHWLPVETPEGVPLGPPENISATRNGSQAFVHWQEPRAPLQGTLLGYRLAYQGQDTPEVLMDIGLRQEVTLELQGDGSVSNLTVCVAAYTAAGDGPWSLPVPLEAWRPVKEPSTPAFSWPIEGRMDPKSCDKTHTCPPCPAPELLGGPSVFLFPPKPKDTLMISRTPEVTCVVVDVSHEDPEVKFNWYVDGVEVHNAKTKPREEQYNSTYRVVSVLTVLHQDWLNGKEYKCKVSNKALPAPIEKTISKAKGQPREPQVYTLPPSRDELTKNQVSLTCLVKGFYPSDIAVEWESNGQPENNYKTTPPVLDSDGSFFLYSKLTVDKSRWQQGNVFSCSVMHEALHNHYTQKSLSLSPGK

| Molecule | pI [1] | affinity for Axl-Fc compared with Ab1 (Human Axl-Fc chimera) | Kd (Human Axl-Fc chimera) [nM] | ka, AXL-Fc antigen (Human Axl-Fc chimera) [M⁻¹ s⁻¹] | kd, AXL-Fc antigen (Human Axl-Fc chimera) [s⁻¹] |
| --- | --- | --- | --- | --- | --- |
| Ab2: anti-AXL antibody, VH SEQ ID NO. 2, VL SEQ ID NO. 5, constant region derived from human antibodies (antibody, V domains shown, human constant regions; Synthetic heavy chain variable region 1H12RHA; Synthetic light chain variable region 1H12RKA, 5, constant region derived from human antibodies) VH: MGFKMESQFQVFVFVFLWLSGVDGQVQLVESGGGVVQPGRSLRLSCAASGFTFSSYGMSVRQAPGKGLEWVATISSGGSYTYYPDSVKGRFTISRDNSKNTLYLQMNSLRAEDTAVYYCARHPIYYTYDDTMDYWGQGTTVTVSS VL: MGFKMESQFQVFVFVFLWLSGVDGEIVLTQSPATLSLSPGERATLSCSASSSVSSGNFHWYQQKPGLAPRLLIYRTSNLASGIPDRFSGSGSGTDFTLTISRLEPEDFAVYYCQQWSGYPWTFGPGTKVDIK | 8.06 | higher affinity | 1.84 | 83700 | 0.000154 |
| Ab5: anti-AXL antibody, VH SEQ ID NO. 3, VL SEQ ID NO. 7, constant region derived from human antibodies (antibody, V domains shown, human constant regions; Synthetic heavy chain variable region 1H12RHB; Synthetic light chain variable region 1H12RKB, 7, constant region derived from human antibodies) VH: MGFKMESQFQVFVFVFLWLSGVDGEVQLVESGGGLVQPGGSLRLSCAASGFTFSSYGMSWVRQAPGKGLEWVATISSGGSYTYYPDSVKGRFTISRDNAKNSLYLQMNSLRAEDTAVYYCARHPIYYTYDDTMDYWGQGTLVTVSS VL: MGFKMESQFQVFVFVFLWLSGVDGEIVLTQSPGTLSLSPGERATLSCSASSSVSSGNFHWYQQKPGLAPRLLIYRTSNLASGIPARFSGSGSGTDFTLTISSLEPEDFAVYYCQQWSGYPWTFGGGTKLEIK | 7.54 |  |  | 20600 | 0.000159 |
| Ab3: anti-AXL antibody, VH SEQ ID NO. 2, VL SEQ ID NO. 7, constant region derived from human antibodies (antibody, V domains shown, human constant regions; Synthetic heavy chain variable region 1H12RHA; Synthetic light chain variable region 1H12RKB, 7, constant region derived from human antibodies) VH: MGFKMESQFQVFVFVFLWLSGVDGQVQLVESGGGVVQPGRSLRLSCAASGFTFSSYGMSVRQAPGKGLEWVATISSGGSYTYYPDSVKGRFTISRDNSKNTLYLQMNSLRAEDTAVYYCARHPIYYTYDDTMDYWGQGTTVTVSS VL: MGFKMESQFQVFVFVFLWLSGVDGEIVLTQSPGTLSLSPGERATLSCSASSSVSSGNFHWYQQKPGLAPRLLIYRTSNLASGIPARFSGSGSGTDFTLTISSLEPEDFAVYYCQQWSGYPWTFGGGTKLEIK | 8.15 |  | 8.5 | 24500 | 0.0002 |
| Ab4: anti-AXL antibody, VH SEQ ID NO. 3, VL SEQ ID NO. 5, constant region derived from human antibodies (antibody, V domains shown, human constant regions; Synthetic heavy chain variable region 1H12RHB; Synthetic light chain variable region 1H12RKA, 5, constant region derived from human antibodies) VH: MGFKMESQFQVFVFVFLWLSGVDGEVQLVESGGGLVQPGGSLRLSCAASGFTFSSYGMSWVRQAPGKGLEWVATISSGGSYTYYPDSVKGRFTISRDNAKNSLYLQMNSLRAEDTAVYYCARHPIYYTYDDTMDYWGQGTLVTVSS VL: MGFKMESQFQVFVFVFLWLSGVDGEIVLTQSPATLSLSPGERATLSCSASSSVSSGNFHWYQQKPGLAPRLLIYRTSNLASGIPDRFSGSGSGTDFTLTISRLEPEDFAVYYCQQWSGYPWTFGPGTKVDIK | 7.56 | higher affinity |  | 290000 | 0.000396 |
| Ab1 (antibody, V domains shown) VH: EVQLVESGGDLVKPGGSLKLSCAASGFTFSSYGMSWVRQTPDKRLEWVATISSGGSYTYYPDSVKGRFTISRDNAKNTLYLQMSSLKSEDTAMYYCARHPIYYTYDDTMDYWGQGTSVTVSS VL: ENVLTQSPAIMAASPGEKVTMTCSASSSVSSGNFHWYQQKPGTSPKLWIYRTSNLASGVPARFSGSGSGTSYSLTISSMEAEDAATYYCQQWSGYPWTFGGGTKLEIK | 8.05 |  |  | 30900 | 0.000142 |
